Test results published in patent publication US20260116980A1.

Biological target: B7H3 on H358 tumor cells (UniProt Q5ZPR3)
Test: FACS on H358 cells, 1 h on ice, fluorescence-labelled anti-human Fc

Chain of B7H3 on H358 tumor cells (Q5ZPR3 29-534): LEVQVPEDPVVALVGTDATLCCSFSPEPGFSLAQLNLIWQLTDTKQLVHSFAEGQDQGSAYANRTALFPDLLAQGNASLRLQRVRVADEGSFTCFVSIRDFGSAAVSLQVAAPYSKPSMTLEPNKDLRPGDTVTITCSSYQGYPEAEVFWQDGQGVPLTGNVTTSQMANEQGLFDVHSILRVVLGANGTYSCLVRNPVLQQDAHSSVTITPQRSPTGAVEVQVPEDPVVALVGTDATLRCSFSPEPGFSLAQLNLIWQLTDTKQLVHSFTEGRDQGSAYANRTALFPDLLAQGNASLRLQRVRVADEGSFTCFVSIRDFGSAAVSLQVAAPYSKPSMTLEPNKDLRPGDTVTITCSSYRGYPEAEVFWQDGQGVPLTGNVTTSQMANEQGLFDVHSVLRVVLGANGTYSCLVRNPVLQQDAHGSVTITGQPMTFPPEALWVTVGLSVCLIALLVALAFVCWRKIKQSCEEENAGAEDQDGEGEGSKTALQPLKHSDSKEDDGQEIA

## MABX-9001a (a humanized anti-B7H3 IgG1 monoclonal antibody used for DS-7300a)
  EC50 (read off the curve): 1 nM
